Measured values taken from the Immune Epitope Database (IEDB).
Values belong to the sequence of their own block, whether it stands above or below them.

Legend:
[1] = target: HLA-A*32:01; experiment: IEDB peptide-MHC binding, purified MHC/competitive/radioactivity; filed as Kd, often an IC50 or EC50 that approximates it; ≥ and ≤ were set here for values at or beyond the usual limits of such assays
[2] = target: HLA-B*08:01; experiment: as above
[3] = target: HLA-B*51:01; experiment: as above
[4] = target: HLA-A*02:06; experiment: as above; conditions: source organism: Dengue virus 2 Jamaica/1409/1983
[5] = target: HLA-B*44:02; experiment: as above
[6] = target: HLA-A*26:01; experiment: as above; conditions: source organism: Mammarenavirus guanaritoense
[7] = target: HLA-A*30:02; experiment: as above; conditions: source organism: Mammarenavirus guanaritoense
[8] = target: HLA-A*01:01; experiment: as above; conditions: source organism: Mammarenavirus guanaritoense
[9] = target: HLA-A*30:01; experiment: as above; conditions: source organism: Mammarenavirus guanaritoense
[10] = target: HLA-A*29:02; experiment: as above; conditions: source organism: Mammarenavirus guanaritoense
[11] = target: HLA-A*69:01; experiment: IEDB peptide-MHC binding, purified MHC/direct/fluorescence; filed as Kd, often an IC50 or EC50 that approximates it; ≥ and ≤ were set here for values at or beyond the usual limits of such assays
[12] = target: HLA-A*11:01; experiment: as above
[13] = target: HLA-A*03:01; experiment: as above
[14] = target: HLA-B*08:01; experiment: as above
[15] = target: HLA-B*07:02; experiment: as above; conditions: source organism: Pseudomonas tolaasii
[16] = target: HLA-A*31:01; experiment: as above
[17] = target: HLA-A*26:01; experiment: as above
[18] = target: HLA-B*58:01; experiment: as above
[19] = target: HLA-A*01:01; experiment: as above; conditions: source organism: Pseudomonas tolaasii
[20] = target: HLA-B*40:01; experiment: as above; conditions: source organism: Pseudomonas fluorescens
[21] = target: HLA-B*27:05; experiment: as above; conditions: source organism: Pseudomonas tolaasii
[22] = target: HLA-A*02:01; experiment: as above; conditions: source organism: Pseudomonas tolaasii
[23] = target: HLA-B*15:01; experiment: as above
[24] = target: HLA-A*02:01; experiment: IEDB peptide-MHC binding, purified MHC/competitive/fluorescence; filed as Kd, often an IC50 or EC50 that approximates it; ≥ and ≤ were set here for values at or beyond the usual limits of such assays
[25] = target: HLA-B*46:01; experiment: IEDB peptide-MHC binding, purified MHC/direct/fluorescence; filed as Kd, often an IC50 or EC50 that approximates it; ≥ and ≤ were set here for values at or beyond the usual limits of such assays; conditions: source organism: Yellow fever virus
[26] = source organism: Dengue virus 4 Philippines/H241/1956
[27] = source organism: Dengue virus 2 Jamaica/1409/1983
[28] = source organism: Dengue virus 3 Martinique/1243/1999
[29] = source organism: Vaccinia virus WR
[30] = source organism: Dengue virus 1 Brazil/97-11/1997
[31] = source organism: Mammarenavirus guanaritoense
[32] = source organism: Mycobacterium tuberculosis
[33] = source organism: Pseudomonas tolaasii
[34] = source organism: Haemophilus influenzae

Sequence: IDNVHTWTEQ
Kd [1, 26]: 9850 nM

Sequence: TKQTGSASSM
Kd [2, 27]: 1440 nM

Sequence: MAEIPLQWI
Kd [3, 28]: 3430 nM

Sequence: FSLGVLGMAL
Kd [4]: 3.5 nM
Kd [3, 27]: 3860 nM

Sequence: SMTKKFKTI
Kd [2, 29]: 151 nM

Sequence: AEHSGTSHNI
Kd [5, 30]: 48.2 nM

Sequence: SIKSKSRRL
Kd [2, 29]: 29.8 nM

Sequence: YSEESPTEY
Kd [6]: ≥ 77900 nM
Kd [7]: ≥ 76900 nM
Kd [8]: 225 nM
Kd [1, 31]: ≥ 77800 nM
Kd [9]: 19400 nM
Kd [10]: ≥ 25400 nM

Sequence: SEVSNVQRI
Kd ([5]; source organism: Lymphocytic choriomeningitis virus (strain Armstrong) (clone 53b)): 12 nM

Sequence: SNRAIFVPI
Kd [2, 29]: 127 nM

Sequence: KLLRRPFSL
Kd [2, 29]: 0.362 nM

Sequence: SWDNTSVDLY
Kd [6]: ≥ 69700 nM
Kd [7]: 147 nM
Kd [8]: 1280 nM
Kd [1, 31]: ≥ 69900 nM
Kd [9]: 9330 nM
Kd [10]: 856 nM

Sequence: FLMGFNRDV
Kd [11, 32]: 1760 nM

Sequence: EDMLKVWNRV
Kd [1, 26]: 19600 nM

Sequence: GPLIAGGMLI
Kd [3, 30]: 18800 nM

Sequence: ELKEKSVKF
Kd [2, 29]: 3.19 nM

Sequence: YRIAKFLFM
Kd [2, 29]: 16.8 nM

Kd [12, 33]: ≥ 20000 nM
Kd [13, 33]: ≥ 20000 nM
Kd [14, 33]: ≥ 20000 nM
Kd [15]: ≥ 20000 nM
Kd [16, 33]: ≥ 20000 nM
Kd [17, 33]: ≥ 20000 nM
Kd [18, 33]: ≥ 20000 nM
Kd [19]: ≥ 20000 nM
Kd [11, 33]: ≥ 20000 nM
Kd [20]: 54.3 nM
Kd [21]: ≥ 20000 nM
Kd [22]: ≥ 20000 nM
Kd [23, 33]: ≥ 20000 nM
Sequence: AEGTGITHL

Sequence: ALNHLVLSL
Kd [1, 29]: 41.4 nM

Sequence: TTDFTRLRY
Kd [6]: 2410 nM
Kd [7]: 551 nM
Kd [8]: 7.53 nM
Kd [1, 31]: 11500 nM
Kd [9]: 1930 nM
Kd [10]: 59.5 nM

Sequence: TEVDRTEAK
Kd [5, 28]: ≥ 20800 nM

Sequence: SQMERFNCS
Kd ([2]; source organism: Vaccinia virus Copenhagen): 38.8 nM

Sequence: LMKERISSE
Kd [2, 29]: 81.9 nM

Sequence: IGMNSRSTSL
Kd [2, 27]: 107 nM

Sequence: LTQKVVIFIL
Kd [2, 28]: 3100 nM

Sequence: FGRAKGSRAI
Kd [3, 26]: 14500 nM

Kd [12, 34]: 5270 nM
Kd [13, 34]: 1060 nM
Kd [16, 34]: 905 nM
Kd [18, 34]: 190 nM
Kd [23, 34]: 296 nM
Sequence: RLFFIDWEY

Sequence: MTSERTLAV
Kd ([24]; source organism: Yersinia pestis Nepal516): 57.7 nM

Sequence: VPFCSHHFHE
Kd [3, 28]: ≥ 66600 nM

Sequence: ILRKATRRL
Kd ([14]; source organism: Influenza A virus (A/Ck/HK/CSW161/2003(H9N2))): 369 nM

Sequence: STLELRSGY
Kd ([17]; source organism: Influenza A virus (A/Egypt/96/2002(H1N2))): 24.8 nM

Sequence: RTWHYCGSY
Kd [25]: ≥ 20000 nM

Sequence: RVMVSPLAV
Kd ([24]; source organism: Influenza A virus H3N2): 0.9 nM

Sequence: LLHEVGITV
Kd [11, 32]: 1920 nM

Sequence: ELINKFVEL
Kd [2, 29]: 1040 nM

Sequence: TPMMRHTIE
Kd [2, 30]: 7.23 nM

Sequence: LAGAGLAFSL
Kd [2, 30]: 2620 nM
